From patent EP0488317A2 come the findings set out here.

This experiment has as its target Bovine thrombin (bovine) (UniProt P00735). Kind of experiment: cell-based or functional assay.

Consider r-UTM (from UniProt P07204 19-486), for which the Coagulation time, substance 17 nM, bovine fibrinogen 1 mg/ml, bovine thrombin 18 nM; control 28.1 sec stood at 29.6 s; the IC50 of inhibition of coagulation of bovine fibrinogen (1 mg/ml) by bovine thrombin (18 nM) amounted to 80 nM; the clotting time, human fibrinogen 2.5 mg/ml, bovine thrombin 0.5 U/ml, ATIII (+) (human antithrombin III 250 ug/ml); control 49.5 sec was 80.8 s; the clotting time, human fibrinogen 2.5 mg/ml, bovine thrombin 0.5 U/ml, ATIII (-); control 43.3 sec came out at 61.8 s.
